Reference: patent publication US20190248888A1, “METHODS OF LOWERING BLOOD GLUCOSE LEVELS” (Regeneron Pharmaceuticals, Inc., priority 2016, published 2019)

Tested on: isolated pancreatic islets from mice
Test: RNAseq gene expression in isolated pancreatic islets of GCGR antibody treated mice (Table 5)
Type: in vivo, mouse
Details: isolated islets, 10 mg/kg, 21 days
Method: Mouse islets were isolated by density gradient separation after perfusing pancreas with Liberase TL (Roche, Indianapolis) through the common bile duct. Following a 13 min digestion at 37° C., the pancreas solution was washed and filtered through a 400-μm wire mesh strainer and islets were separated by Histopaque gradient centrifugation (Sigma-Aldrich). Isolated islets were cultured overnight in RPMI-1640 medium supplemented with 10% (v/v) FBS, 10 mM HEPES, 50 μM β-mercaptoethanol, 1.0 mM sodium-pyruvate, 100 U/mL penicillin and 100 μg/mL streptomycin at 37° C. with a 5% CO2 in air atmosphere.
Total RNA was purified from all samples using MagMAX™-96 for Microarrays Total RNA Isolation Kit (Ambion by Life Technologies) according to manufacturer's specifications. Genomic DNA was removed using MagMAX™Turbo™DNase Buffer and TURBO DNase from the MagMAX kit listed above (Ambion by Life Technologies). mRNA was purified from total RNA using Dynabeads® mRNA Purification Kit (Invitrogen). Strand-specific RNA-seq libraries were prepared using ScriptSeq™ mRNA-Seq Library Preparation Kit (Epicentre). Twelve-cycle PCR was performed to amplify libraries. Sequencing was performed on Illumina HiSeq®2000 (Illumina) by multiplexed single-read run with 33 cycles.
Raw sequence data (BCL files) were converted to FASTQ format via Illumina Casava 1.8.2. Reads were decoded based on their barcodes and read quality was evaluated with FastQC (http://www.bioinformatics.babraham.ac.uk/projects/fastqc/). Reads were mapped to the mouse transcriptome (NCBI GRCh37) using CLC Genomics Workbench Version 7.0 (CLCbio) or TopHat2 (Version 2.0.10) allowing two mismatches. Reads mapped to the exons of a gene were summed at the gene level. To identify differentially expressed genes, the statistical significance (p-value) of the differential expressions was assessed with DESeq package (version 1.6 or 2.0). […]

B1: α-GCGR: potent monoclonal GCGR blocking antibody, HCVR/LCVR SEQ ID NOs: 86/88 (antibody, V domains shown)
VH: EVQLVESGGGLVQPGGSLRLSCAASGFTFSNYLMNWVRQAPGKGLEWLANIQEDGIEKYYVDSVKGRFTISRDNAKNSLYLQMNSLRAEDTAVYYCAREPSHYDILTGYDYYYGMDVWGQGTTVTVS
VL: DIQMTQSPSSLSASVGDRVTITCRASQGIRNDLGWYQQKPGKAPKRLIYAASSLQSGVPSRFSGSGSGTEFILTVSSLQPEDFATYYCLQYNSNPFTFGPGTKVDIK
- 1700086L19Rik RPKM (gene 1700086L19Rik): 119.24 RPKM
- 1810011O10Rik RPKM (gene 1810011O10Rik): 5.88 RPKM
- 1810041L15Rik RPKM (gene 1810041L15Rik): 3.14 RPKM
- 4930539E08Rik RPKM (gene 4930539E08Rik): 5.64 RPKM
- 9030617O03Rik RPKM (gene 9030617O03Rik): 5.31 RPKM
- AW551984 RPKM (gene AW551984): 5.27 RPKM
- Acta1 RPKM (gene Acta1): 1.05 RPKM
- Agpat4 RPKM (gene Agpat4): 4.89 RPKM
- Agt RPKM (gene Agt): 22.33 RPKM
- Ang RPKM (gene Ang): 69.38 RPKM
- Ano1 RPKM (gene Ano1): 1.26 RPKM
- Anxa3 RPKM (gene Anxa3): 11.67 RPKM
- Anxa13 RPKM (gene Anxa13): 0.65 RPKM
- Apoa2 RPKM (gene Apoa2): 10.76 RPKM
- Apod RPKM (gene Apod): 2.75 RPKM
- Apol7a RPKM (gene Apol7a): 0.28 RPKM
- Arg1 RPKM (gene Arg1): 59.62 RPKM
- Arx RPKM (gene Arx): 6.42 RPKM
- Asb11 RPKM (gene Asb11): 1.00 RPKM
- Avpr1b RPKM (gene Avpr1b): 4.45 RPKM
- Basp1 RPKM (gene Basp1): 11.31 RPKM
- Blnk RPKM (gene Blnk): 3.87 RPKM
- Bok RPKM (gene Bok): 1.31 RPKM
- Car9 RPKM (gene Car9): 0.79 RPKM
- Cdc42ep1 RPKM (gene Cdc42ep1): 1.77 RPKM
- Clec2d RPKM (gene Clec2d): 9.10 RPKM
- Clic6 RPKM (gene Clic6): 0.26 RPKM
- Clu RPKM (gene Clu): 481.69 RPKM
- Cnih2 RPKM (gene Cnih2): 1.98 RPKM
- Cobl RPKM (gene Cobl): 2.27 RPKM
- Ctse RPKM (gene Ctse): 1.73 RPKM
- Dbpht2 RPKM (gene Dbpht2): 27.59 RPKM
- Dmbt1 RPKM (gene Dmbt1): 10.80 RPKM
- Dpp6 RPKM (gene Dpp6): 8.00 RPKM
- Drc1 RPKM (gene Drc1): 4.67 RPKM
- Eda2r RPKM (gene Eda2r): 1.98 RPKM
- Eef1a2 RPKM (gene Eef1a2): 35.85 RPKM
- Ehf RPKM (gene Ehf): 10.90 RPKM
- Etv1 RPKM (gene Etv1): 33.99 RPKM
- F5 RPKM (gene F5): 1.71 RPKM
- Ffar4 RPKM (gene Ffar4): 5.88 RPKM
- Fgd3 RPKM (gene Fgd3): 0.83 RPKM
- Fgl2 RPKM (gene Fgl2): 37.91 RPKM
- Gamt RPKM (gene Gamt): 0.58 RPKM
- Gbp8 RPKM (gene Gbp8): 7.39 RPKM
- Gbp9 RPKM (gene Gbp9): 4.03 RPKM
- Gc RPKM (gene Gc): 153.00 RPKM
- Gcg RPKM (gene Gcg): 63254.16 RPKM
- Gcnt4 RPKM (gene Gcnt4): 3.02 RPKM
- Gfra1 RPKM (gene Gfra1): 3.43 RPKM
- Gfra3 RPKM (gene Gfra3): 8.18 RPKM
- Gm609 RPKM (gene Gm609): 6.28 RPKM
- Gm20554 RPKM (gene Gm20554): 2.33 RPKM
- Gng2 RPKM (gene Gng2): 7.35 RPKM
- Gpr119 RPKM (gene Gpr119): 15.35 RPKM
- Gpx3 RPKM (gene Gpx3): 638.48 RPKM
- Hspb1 RPKM (gene Hspb1): 10.32 RPKM
- Ifih1 RPKM (gene Ifih1): 10.68 RPKM
- Igsf23 RPKM (gene Igsf23): 0.40 RPKM
- Irx1 RPKM (gene Irx1): 5.96 RPKM
- Irx2 RPKM (gene Irx2): 8.92 RPKM
- Itgb4 RPKM (gene Itgb4): 1.65 RPKM
- Jchain RPKM (gene Jchain): 74.91 RPKM
- Kcna2 RPKM (gene Kcna2): 0.81 RPKM
- Kcnab3 RPKM (gene Kcnab3): 2.28 RPKM
- Kcnf1 RPKM (gene Kcnf1): 0.86 RPKM
- Kcnk3 RPKM (gene Kcnk3): 8.14 RPKM
- Klb RPKM (gene Klb): 4.59 RPKM
- Klhl13 RPKM (gene Klhl13): 5.34 RPKM
- Krt19 RPKM (gene Krt19): 26.52 RPKM
- Krt20 RPKM (gene Krt20): 0.65 RPKM
- Krt23 RPKM (gene Krt23): 2.17 RPKM
- Lamb3 RPKM (gene Lamb3): 1.16 RPKM
- Mafb RPKM (gene Mafb): 24.19 RPKM
- Mamld1 RPKM (gene Mamld1): 5.64 RPKM
- Mapk13 RPKM (gene Mapk13): 2.86 RPKM
- Matn2 RPKM (gene Matn2): 2.36 RPKM
- Ndst4 RPKM (gene Ndst4): 6.30 RPKM
- Necab2 RPKM (gene Necab2): 7.29 RPKM
- Nefm RPKM (gene Nefm): 6.35 RPKM
- Npr1 RPKM (gene Npr1): 3.07 RPKM
- Nptxr RPKM (gene Nptxr): 4.03 RPKM
- Nsg2 RPKM (gene Nsg2): 3.49 RPKM
- Ntn1 RPKM (gene Ntn1): 0.65 RPKM
- Nudt11 RPKM (gene Nudt11): 8.49 RPKM
- Nyap1 RPKM (gene Nyap1): 3.82 RPKM
- Ocrl RPKM (gene Ocrl): 37.04 RPKM
- Oit1 RPKM (gene Oit1): 4.78 RPKM
- Olfm3 RPKM (gene Olfm3): 3.59 RPKM
- Oxtr RPKM (gene Oxtr): 7.25 RPKM
- Pdk4 RPKM (gene Pdk4): 25.17 RPKM
- Peg10 RPKM (gene Peg10): 17.17 RPKM
- Pla2g2d RPKM (gene Pla2g2d): 5.69 RPKM
- Ptf1a RPKM (gene Ptf1a): 0.52 RPKM
- Ptprd RPKM (gene Ptprd): 4.67 RPKM
- Ptprg RPKM (gene Ptprg): 3.12 RPKM
- Rasd1 RPKM (gene Rasd1): 10.12 RPKM
- Rbms3 RPKM (gene Rbms3): 2.38 RPKM
- Rbp4 RPKM (gene Rbp4): 210.71 RPKM
- Rcn1 RPKM (gene Rcn1): 12.75 RPKM
- Rragb RPKM (gene Rragb): 33.15 RPKM
- Sema3e RPKM (gene Sema3e): 2.28 RPKM
- Serpinb6b RPKM (gene Serpinb6b): 1.59 RPKM
- Serpine2 RPKM (gene Serpine2): 10.10 RPKM
- Serping1 RPKM (gene Serping1): 82.99 RPKM
- Sftpd RPKM (gene Sftpd): 4.65 RPKM
- Sgce RPKM (gene Sgce): 10.55 RPKM
- Sh2d4a RPKM (gene Sh2d4a): 0.65 RPKM
- Sh3bgr RPKM (gene Sh3bgr): 3.39 RPKM
- Slc38a3 RPKM (gene Slc38a3): 0.79 RPKM
- Slc38a5 RPKM (gene Slc38a5): 52.26 RPKM
- Smarca1 RPKM (gene Smarca1): 15.49 RPKM
- Spns2 RPKM (gene Spns2): 0.98 RPKM
- St8sia1 RPKM (gene St8sia1): 2.35 RPKM
- Syt16 RPKM (gene Syt16): 2.26 RPKM
- Tead2 RPKM (gene Tead2): 2.17 RPKM
- Tesc RPKM (gene Tesc): 4.72 RPKM
- Tmsb15b1 RPKM (gene Tmsb15b1): 28.28 RPKM
- Tspan1 RPKM (gene Tspan1): 1.40 RPKM
- Ttr RPKM (gene Ttr): 5356.49 RPKM
- Vnn1 RPKM (gene Vnn1): 0.42 RPKM
- Vwde RPKM (gene Vwde): 5.37 RPKM
- Wfdc16 RPKM (gene Wfdc16): 5.87 RPKM
- Wnk3 RPKM (gene Wnk3): 9.33 RPKM
